Results reported in PMC3481325.

Target: HLA A*0201 (soluble, the MHC part of the HLA A*0201-peptide complexes)
Assay: SPR

t½ of the HLA A*0201-peptide complex: 8 h
Substance: […] peptide (Melan A 26-35)
